This is an account of results in US20130040825A1, “DNA DAMAGE DETECTION ASSAY AND METHOD” (priority 2011, published 2013).

In data set [1] the test system is CAN1 gene. The data set can be described thus: q-PADDA quantification of induced DNA damage after in vitro exposure of cloned CAN1 plasmid DNA. It counts as biochemical, Saccharomyces cerevisiae. Here is the method: We quantified induced DNA damage after in vitro and/or in vivo exposure to a dose escalation of H2O2 (1 μM to 500 mM) and methyl methanosulfonate (MMS) (1 mM to 1 M). For in vitro assays, a 1,750 bp fragment of the CAN1 gene was amplified by PCR and cloned into the pJET1.2 vector (Fermentas, Glenn Burie, Md.) using standard protocols. Plasmid DNA was sequence verified, extracted using CsCl and dialyzed overnight against 500 ml H2O. Five μg of dialyzed DNA were treated with H2O2 in the presence of 0.3 M sucrose and 100 μM Fe^2+ as described (84), or with MMS in water (85). Treated DNA was recovered by ethanol precipitation. For in vivo induced DNA damage assays, BER− cells in logarithmic phase were treated with varying doses and times of MMS as described (85). For a control, cells were treated with water in place of MMS. Genomic DNA was extracted as described above, except MMS concentration was kept constant during spheroplasting. […] Control samples were processed as treated samples except water was added in place of the specific genotoxic. Experiments were repeated at least in triplicate. For high-throughput damage quantification, the highly purified streptavidin bound extended products were re-suspended in 50 μl TE and amplified by Real-Time PCR using one of 2 Real-Time PCR detection Systems: IQ5 Real-Time PCR detection System or Qx100 digital droplet PCR system.
For the IQ5 Real-Time PCR detection System using Sybr Green, reactions were carried out in an in a 25 μl final volume with PCR buffer (40 mM Tricine-KOH (pH 8.0), 16 mM KCl, 3.5 mM MgCl2, 3.75 μg/ml bovine serum albumin), 1:75,000 dilution SYBR Green I (Invitrogen), 0.8 mM total dNTPs (Fermentas), 0.7 units JUMPSTART Taq polymerase (Sigma), 0.32 μM each oligo, and 1/32 of total extended product pool. Amplification was monitored and analyzed by measuring the intercalation of the fluorescent dye to double-stranded DNA according to the manufacturer's instructions. To quantify damage on each strand of the yeast CAN1 gene, two fragments of different lengths located in the same genomic region were amplified. The long fragment (513 to 628 bases) was used to assess damage quantification. The short fragment (67 to 68 bases), representing undamaged DNA, was used as an internal normalization control. The PCR conditions for the different fragments were optimized to achieve similar amplification efficiencies required to compare different amplicons. All products were amplified under the following conditions: 95° C., 3 min; 40 cycles (95° C., 15 s; 63° C., 40 s). Each sample was assayed in at least three independent experiments, each with at least four wells per sample, from three separate yeast cultures and DNA extractions. […]

Data set [2] deals with BER− cells. The data set can be described thus: q-PADDA quantification of in vivo induced DNA damage in BER− cells in logarithmic phase. The data set is classed as cell-based, Saccharomyces cerevisiae. The note with it: BER− yeast cells (FIG. 4A, 4B). Here is the method:
We quantified induced DNA damage after in vitro and/or in vivo exposure to a dose escalation of H2O2 (1 μM to 500 mM) and methyl methanosulfonate (MMS) (1 mM to 1 M). For in vitro assays, a 1,750 bp fragment of the CAN1 gene was amplified by PCR and cloned into the pJET1.2 vector (Fermentas, Glenn Burie, Md.) using standard protocols. Plasmid DNA was sequence verified, extracted using CsCl and dialyzed overnight against 500 ml H2O. Five μg of dialyzed DNA were treated with H2O2 in the presence of 0.3 M sucrose and 100 μM Fe^2+ as described (84), or with MMS in water (85). Treated DNA was recovered by ethanol precipitation. […] For high-throughput damage quantification, the highly purified streptavidin bound extended products were re-suspended in 50 μl TE and amplified by Real-Time PCR using one of 2 Real-Time PCR detection Systems: IQ5 Real-Time PCR detection System or Qx100 digital droplet PCR system.
For the IQ5 Real-Time PCR detection System using Sybr Green, reactions were carried out in an in a 25 μl final volume with PCR buffer (40 mM Tricine-KOH (pH 8.0), 16 mM KCl, 3.5 mM MgCl2, 3.75 μg/ml bovine serum albumin), 1:75,000 dilution SYBR Green I (Invitrogen), 0.8 mM total dNTPs (Fermentas), 0.7 units JUMPSTART Taq polymerase (Sigma), 0.32 μM each oligo, and 1/32 of total extended product pool. […] The long fragment (513 to 628 bases) was used to assess damage quantification. […]

Data set [3] deals with naked DNA. In words: PADDA detection of cytosine deamination after exposure of naked DNA to serial dilutions of sodium bisulfite. It counts as biochemical. The note with it: serial dilutions (FIG. 6).
Data set [4] concerns the target T1, Vent exo− (Thermococcus litoralis, UniProt P30317, D141A/DEL1082-1471/DEL495-1032/E143A).
T1 construct: Vent exo−, a truncated form of a native DNA polymerase (Vent, NEB); purchased NEB
In words: f-PADDA primer extension on synthetic oligonucleotides containing a single engineered lesion. It counts as biochemical. The note with it: for lesion detected in primer extensions (sensitivity of PADDA): engineered lesion in 64 base template, at least 20 independent events per lesion; for Stops with Misincorporation (SMs): replicative arrest with misincorporation opposite the damaged base; for Stops: replicative arrest without misincorporation; for lesion acting as Vent exo− blocking lesion: share of all primer extensions; for Lesion Bypass with Misincorporation (LBM): misincorporation without replicative arrest. How it is done: A single non-cycled primer-extension reaction in the region of interest was performed to screen for DNA damage. It will be understood that the presently disclosed and claimed inventive concepts are not limited to these oligonucleotides. For damage detection in synthetic DNA, we prepared a 22.8 μl primer extension reaction containing 1× Thermopol buffer (NEB, Ipswich, Mass.), 0.2 mM each dNTP (Fermentas, Glen Burie, Md.), 20 pmol of a 5-biotin-tagged primer, and 20 pmol of a 64 base template containing either a synthetic abasic or 8-OxoG lesion, along with a control (undamaged oligo). To generate a pool of biotin-tagged extended products (FIG. 1A), the mix was incubated at 94° C. for 3 min, held at 85° C. to add 0.08 U of Vent exo− (NEB), and then incubated at 58° C. for 2 min (annealing), and 75° C. for 2 min (extension). For damage detection in genomic DNA, we used 500 ng of S. cerevisiae genomic DNA, 0.8 U of Vent exo−, and 2 pmol of a 5-biotin-tagged gene specific primer. A sample containing all reagents except Vent exo− was used as a negative control for all experiments. The non-cycled primer-extension contrasts with the multiple-cycle primer-extension reaction of previous assays, and generates a pool of highly specific biotin-tagged extended products (EPs), each of them derived from a single DNA molecule and strand (FIG. 1A). The use of a 5-biotin-tagged sequence specific primer allows for subsequent steps aimed at reducing the background of the technique. Vent exo−, a truncated form of a native DNA polymerase (Vent, NEB), was chosen for this assay instead of the currently used Sequenase (13) or Taq DNA polymerase (14), because of its reported high sensitivity to detect DNA damage (21) and primer-extension efficiency (22-24). To optimize primer-extension performance, Vent exo− units were adjusted to the complexity of the DNA being screened (22).
For the purpose of mapping strand-specific nucleotide damage (f-PADDA), the 3′-end of the highly purified extended products was attached to the 5′-end of a chemically modified adapter-primer using Thermophage single-stranded DNA ligase (Prokaria, Reykjavik, Iceland) [Currently Circligase I from Epicentre, Madison, Wis.]. Thermophage was chosen for this reaction because its efficiency for single-strand ligation is higher than that of T4 RNA ligase (25) used in some PCR-based assays. […] Purified extended-products were first washed with 20 μl of 1× Thermophage ssDNA ligase buffer and then resuspended in 3.7 μl of 1× Thermophage ssDNA ligase buffer. The ligation was performed as recommended by Prokaria except 1.5 μM adapter and 10 U ssDNA ligase in a final 10 μl volume were used under the following conditions: 55° C. for 1 h, 65° C. for 15 min, and 70° C. for 15 min. Then, samples were spun briefly and the supernatant removed as before in the presence of a magnet. The adapter-ligated extended-products were washed with 1 ml of 2× B&W buffer, and then incubated with 1 ml of 0.5 M NaOH for 5 min to completely remove free adapters and non-specifically bound DNA. Finally, the supernatant was discarded and the bound products were washed with 200 μl of 2× B&W buffer. The adapter-linked extended-products pool was then washed with 20 μl of 1× Phusion HF PCR buffer and amplified for 35-cycles using Phusion Hot-Start DNA Polymerase (Finnzymes), an oligonucleotide complementary to the adapter-primer and a nested gene-specific primer according to the manufacturer's instructions. Phusion Hot-Start DNA Polymerase has the highest available accuracy (error rate=4.4×10^−7) and generates blunt-end products. After PCR amplification, the supernatant was collected under a magnetic field for use in cloning (CLONE JET PCR cloning kit, Fermentas) and transformation following standard procedures. This cloning strategy yields 99% of clones positive for a cloned insert. […]

T1 sequence (P30317 other isoform, or with tags, fused parts or gaps D141A/E143A/DEL495-1032/DEL1082-1471): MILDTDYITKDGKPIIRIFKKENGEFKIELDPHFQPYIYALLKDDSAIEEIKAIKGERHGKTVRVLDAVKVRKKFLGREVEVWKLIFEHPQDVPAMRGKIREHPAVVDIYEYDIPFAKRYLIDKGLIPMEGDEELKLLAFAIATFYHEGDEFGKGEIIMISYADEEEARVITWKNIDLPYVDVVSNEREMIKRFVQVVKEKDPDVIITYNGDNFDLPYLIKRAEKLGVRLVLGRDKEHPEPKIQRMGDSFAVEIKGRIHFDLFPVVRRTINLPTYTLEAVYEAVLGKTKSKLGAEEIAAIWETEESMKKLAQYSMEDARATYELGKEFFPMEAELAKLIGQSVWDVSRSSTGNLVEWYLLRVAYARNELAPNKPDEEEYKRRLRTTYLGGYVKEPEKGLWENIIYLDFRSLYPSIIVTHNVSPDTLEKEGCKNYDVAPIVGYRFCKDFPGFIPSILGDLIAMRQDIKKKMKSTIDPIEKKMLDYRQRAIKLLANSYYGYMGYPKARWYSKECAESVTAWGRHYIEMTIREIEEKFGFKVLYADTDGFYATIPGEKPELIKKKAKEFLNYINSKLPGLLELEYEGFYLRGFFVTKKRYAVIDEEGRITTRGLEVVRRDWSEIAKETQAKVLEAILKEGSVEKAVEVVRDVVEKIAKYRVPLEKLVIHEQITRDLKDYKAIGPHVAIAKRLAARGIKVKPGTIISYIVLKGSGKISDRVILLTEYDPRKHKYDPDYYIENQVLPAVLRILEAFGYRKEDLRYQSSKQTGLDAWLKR

For `COS(C)(=O)=O` [MMS, methyl methanosulfonate], the “in vitro DNA damage induced by dose escalation” value in data set [1] (dose escalation (FIG. 5)) is given as “increase in in vitro DNA damage”. The “in vivo DNA damage induced by dose escalation or by increase in exposure time” value in data set [2] is “increase in in vivo DNA damage”.

With `O=S([O-])O.[Na+]` [sodium bisulfite], the “DNA change induced in naked DNA” value in data set [3] was “deamination of unmethylated cytosines to uracil”.

Regarding `OO` [H2O2, Hydrogen peroxide], in data set [1] (each dose escalation from 1 μM to 500 mM), the “total CAN1 DNA damage compared to the control” value was “significant increase in total CAN1 DNA damage”. Further, the “lowest dose giving a significant increase in damage, NTS” value in data set [1] (non-transcribed strand of CAN1, p<0.005) came out at 1 µM. Also, the “lowest dose giving a significant increase in damage, TS” value in data set [1] (transcribed strand of CAN1, p<0.005) worked out at 10 µM.

B1: 8-oxo-dA lesion: synthetic template oligonucleotide containing a single 7,8-dihydro-8-oxo-2′-deoxyadenosine (8-oxo-dA) (nucleic acid)
DNA: CCACTCTCCATGCACATAACAGACTTGGCTGTGCNCGGTGCTCAGGAAGCCCAGGTGGAAGCCAT
modifications: 8-oxo-dA lesion, chemistry not fully specified
For the molecule B1, in data set [4], the “lesion detected in primer extensions (sensitivity of PADDA)” value (“lesion detected in primer extensions” for short) was determined as 100%, the “Stops with Misincorporation (SMs)” value is listed as 10%, the Stops amounted to 90% and the “lesion acting as Vent exo− blocking lesion” value (shortened to “lesion acting”) stood at 100%.

B2: 8-OxoG lesion: synthetic template oligonucleotide containing a single 7,8-dihydro-8-oxo-2′-deoxyguanosine (8-oxo-dG) (nucleic acid)
DNA: CCACTCACCNTGCACATAACAGACTTGGCTGTCCCAGACTGCAGGAAGCCCAGGTGGAAGCCAT
modifications: 8-oxo-dG lesion, chemistry not fully specified
For B2, in data set [4], the “Bypass by Vent exo− without misincorporation” value is listed as 15%, the “lesion detected in primer extensions” value was 85%, the “Lesion Bypass with Misincorporation (LBM)” value turned out to be 62% and the “Stops with Misincorporation (SMs)” value was determined as 15%. In addition, in data set [4], the Stops is 8% and the “lesion acting” value amounted to 23%.

B3: Abasic sites: 64 base synthetic template oligonucleotide with a single abasic site (dSpacer tetrahydrofuran analog) (nucleic acid)
DNA: CCACTCTCCATGCACATAACAGACTTGGCTCACCTGCACTCAGGAAGCCCAGGTGGAAGCCAT
modifications: abasic tetrahydrofuran site, further chemistry not given here
For the molecule B3, in data set [4], the “lesion detected in primer extensions” value worked out at 100%, the “Lesion Bypass with Misincorporation (LBM)” value came out at 5%, the “Stops with Misincorporation (SMs)” value is given as 50% and the Stops was 45%. The “lesion acting” value in data set [4] was determined as 95%.

B4: thymine glycol lesion: synthetic template oligonucleotide containing a single 5R,6S-dihydroxy-5,6-dihydrothymine (thymine glycol) (nucleic acid)
DNA: CCACTCACCGGCACATAACAGACTTGGCTGTCCCAGACTGCAGGAAGCCCAGGTGGAAGCCAT
modifications: thymine glycol lesion, further chemistry not given here
As for B4, in data set [4], the “lesion detected in primer extensions” value was determined as 67%.
